Test results: PMC3282585 (Science Signaling, 2011)

Molecular target: T1, IL17RA-SEFIR (SEFIR domain-containing fragment of human IL17RA, residues 351 to 616) (human, UniProt Q96F46 351-616)
T1 sequence (looked up): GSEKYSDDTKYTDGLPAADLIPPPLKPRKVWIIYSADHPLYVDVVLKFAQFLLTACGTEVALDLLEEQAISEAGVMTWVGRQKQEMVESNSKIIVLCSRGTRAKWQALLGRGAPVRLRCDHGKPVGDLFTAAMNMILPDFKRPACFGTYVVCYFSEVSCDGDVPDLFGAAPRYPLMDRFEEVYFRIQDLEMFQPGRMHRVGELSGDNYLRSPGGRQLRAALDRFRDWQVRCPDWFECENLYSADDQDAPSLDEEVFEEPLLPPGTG
Assay: SPR

Q: Does LDEDEHGLHTKY [CC′ loop peptide of the Act1 SEFIR domain] bind?
A: binds
